Several values for one entry are separate records, joined by “and”; a condition that tells them apart may be missing. Equal values may be shown once. Entries after “also recorded” stand apart in the source; their conditions may differ.
Key:
DU145 xenografts = experiment: established xenograft model; type: in vivo, nude mice; settings: day 67; 1 mg i.p.
Excerpt: Xenografts were allowed to establish for 18 days before therapy commenced (3 times a week for 3 weeks on days indicated). At this time the average tumor volume was 90 mm^3 (FIG. 68D).

U87MG.de2-7 cells = experiment: ADCC assay; type: cell-based, human; settings: E:T ratio 50:1
Description: PBMCs were isolated from healthy volunteer donor blood. Heparinized whole blood was fractionated by density centrifugation on Ficoll-Hypaque (ICN Biomedical Inc., Ohio, USA). PBMC fractions was collected and washed three times with RPMI+1640 supplemented with 100 U/ml penicillin and 100 μg/ml streptomycin, 2 mM L-glutamine, containing 5% heat-inactivated FCS.
CDC and ADCC assays were performed by a modification of a previously published method (Nelson, D. L. et al. (1991) In: J. E. Colignan, A. M. Kruisbeek, D. D. Margulies, E. M. Shevach, and W. Strober (eds.), Current Protocols in Immunology, pp. 7.27.1. New York: Greene Publishing Wiley Interscience). Briefly, 5×10^6 target U87MG.de2-7 and A431cells were labeled with 50 μCi^51Cr (Geneworks, Adelaide, Australia) per 1×10^6 cells and incubated for 2 hr at 37° C. The cells were then washed three time with PBS (0.05M, pH 7.4) and a fourth wash with culture medium. […]
In the first assay, labelled target cells were plated with the effector cells in 96-well “U” bottom microplates (NUNC, Roskilde, Denmark) at effector/target (E:T) cell ratios of 50:1. […] In both assays, micotitre plates were incubated at 37° C. for 4 hours, then 50 μl supernatant was harvested from each well and released ^51Cr was determined by gamma counting (Cobra II automated Gamma Counter, Canberra Packard, Melbourne, Australia). […]

wtEGFR on A431 cells = target: T1, wtEGFR on A431 cells (Homo sapiens, UniProt P00533); experiment: Scatchard analysis on A431 cells; type: binding
T1 construct: A431 cells are human squamous carcinoma cells and express high levels of wtEGFR; host or cells: A431 human squamous (epidermoid) carcinoma cells
Description: All binding assays were performed in 1% HSA/PBS on 1-2×10^6 live U87MG.Δ2-7 or A431 cells for 90 min at 4° C. with gentle rotation. A set concentration of 10 ng/ml ^125I-labeled antibody was used in the presence of increasing concentrations of the appropriate unlabeled antibody. Non-specific binding was determined in the presence of 10,000-fold excess of unlabeled antibody. […] After the incubation was completed, cells were washed and counted for bound ^125I-labeled antibody using a COBRA II gamma counter (Packard Instrument Company, Meriden, CT, USA).

DU145 cells = experiment: FACS binding to cell lines; type: cell-based, human
Excerpt: Clearly, mAb806 and mAb175 can recognize only a small proportion of the EGFR on cells in the presence of an autocrine stimulation loop.

de2-7 EGFR and wtEGFR = target: T2, de2-7 EGFR and wtEGFR (Homo sapiens, UniProt P00533, DELINS30-297G); experiment: immunoprecipitation from 35S-labeled cells; type: binding
T2 construct: expressed in transfected cells; host or cells: NR6ΔEGFR and U87MG.ΔEGFR/U87MG.Δ2-7 (transfected ΔEGFR); U87MG.wtEGFR (transfected wtEGFR); U87MG and A431 (endogenous wtEGFR)
Description: Briefly, cells were labeled for 16 h with […] of Tran ^35S-Label (ICN Biomedicals, Irvine, CA) in DMEM without methionine/cysteine supplemented with 5% dialyzed FCS. After washing with PBS, cells were placed in lysis buffer (1% Triton X-100, 30 mM HEPES, 150 mM NaCl, 500 μM 4-(2-aminoethyl) benzenesulfonylfluoride (AEBSF), 150 nM aprotinin, 1 μM E-64 protease inhibitor, 0.5 mM EDTA, and 1 μM leupeptin, pH 7.4) for 1 h at 4° C. Lysates were clarified by centrifugation for 10 min at 12,000 g and then incubated with 5 μg of appropriate antibody for 30 min at 4° C. before the addition of Protein A-Sepharose. Immunoprecipitates were washed three times with lysis buffer, mixed with SDS sample buffer, separated by gel electrophoresis using a 4-20% Tris/glycine gel that was then dried, and exposed to X-ray film.

U87MG.wtEGFR cells = experiment: FACS binding to cell lines; type: cell-based, human
Description: Briefly, cells were labelled with the relevant antibody (10 μg/ml) followed by fluorescein-conjugated goat anti-mouse IgG (1:100 dilution; Calbiochem San Diego, CA, USA; Becton-Dickinson PharMingen, San Diego, CA, US) as described previously (Nishikawa et al., 1994). FACS data was obtained on a Coulter Epics Elite ESP by observing a minimum of 5,000 events and analyzed using EXPO (version 2) for Windows.
Stained cells were analyzed with a FACS Calibur™ using Cell Quest™ software (Becton-Dickinson PharMingen). […] 1. Mouse IgG2a or IgG2b was used as an isotype control.
Cell lines and antibodies were prepared as described in Example 1. […] Cells (1 3 10 6) were incubated with 5 μg/ml of the appropriate antibody or an isotype-matched negative control in PBS containing 1% HSA for 30 min at 4° C. After three washes with PBS/1% HSA, cells were incubated an additional 30 min at 4° C. with FTTC-coupled goat anti-mouse antibody (1:100 dilution; Calbiochem, San Diego, CA). After three subsequent washes, cells were analyzed on an Epics Elite ESP (Beckman Coulter, Hialeah, FL) by observing a minimum of 20,000 events and analyzed using EXPO (version 2) for Windows.

A431 xenografts [1] = experiment: combination therapy with AG1478, preventative model; type: in vivo, mice; settings: 0.1 mg mAb806; 400 μg AG1478
Description: AG1478 (4-(3-Chloroanilino)-6,7-dimethoxyquinazoline) is a potent and selective inhibitor of the EGFR kinase versus HER2-neu and platelet-derived growth factor receptor kinase (Calbiochem Cat. No. 658552). […] The results are illustrated in FIG. 12. […] 400 μg AG1478 was administered at 0, 2, 4, 7, 9, and 11 days post xenograft.

A431 xenografts [2] = experiment: preventative xenograft model; type: in vivo, nude mice
Description: Tumor cells (3×10^6) in […] of PBS were inoculated subcutaneously into both flanks of 4-6 week old female nude mice (Animal Research Centre, Western Australia, Australia). […] Treatment was continued for a total of 6 doses, 3 times per week for 2 weeks. In the established model, treatment was started when tumors had reached a mean volume of 65±6.42 mm^3 (U87MG.Δ2-7), 84±9.07 mm^3 (U87MG), 73±7.5 mm^3 (U87MG.wtEGFR) or 201±19.09 mm^3 (A431 tumors). Tumor volume in mm^3 was determined using the formula (length×width^2)/2, where length was the longest axis and width the measurement at right angles to the length (Clark et al. (2000) Therapeutic efficacy of anti-Lewis (y) humanized 3S 193 radioimmunotherapy in a breast cancer model: enhanced activity when combined with Taxol chemotherapy. Clin. Cancer Res. 6, 3621-3628). Data was expressed as mean tumor volume±S.E. for each treatment group. Statistical analysis was performed at given time points using Student's t-test. Animals were euthanized when the xenografts reached an approximate volume of 1.5 cm^3 and the tumors excised for histological examination. This research project was approved by the Animal Ethics Committee of the Austin and Repatriation Medical Centre.
These cells contain an amplified EGFR gene and express approximately 2×10^6 receptors per cell. […]

B1: mAb806: murine monoclonal antibody recognizing de2-7 EGFR and amplified EGFR; VH SEQ ID NO:2, VL SEQ ID NO:4 (antibody, listed as Mus musculus, V domains shown)
VH: MRVLILLWLFTAFPGVLSDVQLQESGPSLVKPSQSLSLTCTVTGYSITSDFAWNWIRQFPGNKLEWMGYISYSGNTRYNPSLKSRISITRDTSKNQFFLQLNSVTIEDTATYYCVTAGRGFPYWGQGTLVTVSA
VL: MVSTAQFLAFLLLWFPGARCDILMTQSPSSMSVSLGDTVSITCHSSQDINSNIGWLQQRPGKSFKGLIYHGTNLDDEVPSRFSGSGSGADYSLTISSLESEDFADYYCVQYAQFPWTFGGGTKLEIKR
In the case of B1, the mean tumor volume (DU145 xenografts) is reported as 605 mm^3, the ADCC (U87MG.de2-7 cells) is reported as “lack of parental murine mAb806 immune effector function” and the “receptors (binding sites) per cell” value (wtEGFR on A431 cells) is reported as 2.4×10^5 receptors per cell and 2.3×10^5 receptors per cell. For the same molecule, the affinity (wtEGFR on A431 cells; average of three experiments) was 9.5e+07 M⁻¹, the FACS binding (DU145 cells) was “bind to DU145 cells” and the “immunoprecipitated EGFR bands” value (de2-7 EGFR and wtEGFR) was “immunoprecipitated the two de2-7 EGFR bands, the wtEGFR was completely absent; also recorded: immunoprecipitated a single band corresponding to the wtEGFR from both U87MG.wtEGFR and A431 cells”. The FACS staining (U87MG.wtEGFR cells) was “stained; also recorded: reacted weakly”, the tumor volume (A431 xenografts [1]) was “significant reduction of tumor volume” and the “effect on xenograft growth” value (A431 xenografts [2]; 0.1 mg) was “inhibited significantly”. The mean tumor volume (A431 xenografts [2]; day 13, 1 mg injection) was 260±60.33 mm^3 and 260±60 mm^3.

Source: patent US20240117073A1, “METHODS OF TREATING NEOPLASTIC ASTROCYTOMA” (Ludwig Institute for Cancer Research Ltd., priority 2009, published 2024)
